From patent publication US20240247080A1, “GLP1/GIP/NPY2 RECEPTOR TRIPLE AGONISTS” (Boehringer Ingelheim International GmbH, priority 2022, published 2024)
Starred links: 1 amine or outer side, 2 acyl side, 3 side chain; linkers in the order of their positions; H or OH if unused. Non-standard residues stand in square brackets, D forms with d. Groups on a side chain read outwards from the residue. No end group written: not given here. *: point of attachment. C20 diacid = O=C(O)CCCCCCCCCCCCCCCCCCC(=O)*; γGlu = O=C(O)[C@H](CCC(=O)[*:2])N[*:1]; εLys = N[C@@H](CCCCN[*:1])C(=O)[*:2]; AEEA = NCCOCCOCC(=O)O; Aib = CC(C)(N)C(=O)O

Legend:
Assay in all cases: cell-based or functional assay
[1] = biological target: T1, human neuropeptide Y2 (NPY2) receptor (human, UniProt P49146 1-381)
T1 sequence (looked up): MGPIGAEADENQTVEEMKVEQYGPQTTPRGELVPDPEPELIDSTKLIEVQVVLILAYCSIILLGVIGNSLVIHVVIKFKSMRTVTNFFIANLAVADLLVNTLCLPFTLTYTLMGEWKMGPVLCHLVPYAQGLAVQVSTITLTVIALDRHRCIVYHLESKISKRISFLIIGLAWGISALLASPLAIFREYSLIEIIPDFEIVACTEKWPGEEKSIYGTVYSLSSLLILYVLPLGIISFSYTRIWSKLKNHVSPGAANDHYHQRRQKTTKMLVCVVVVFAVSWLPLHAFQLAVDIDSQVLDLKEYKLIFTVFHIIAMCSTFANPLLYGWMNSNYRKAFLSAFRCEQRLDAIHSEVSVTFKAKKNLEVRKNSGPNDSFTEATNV

[2] = biological target: T2, human GIP receptor (human, UniProt P48546 22-466)
T2 sequence (looked up): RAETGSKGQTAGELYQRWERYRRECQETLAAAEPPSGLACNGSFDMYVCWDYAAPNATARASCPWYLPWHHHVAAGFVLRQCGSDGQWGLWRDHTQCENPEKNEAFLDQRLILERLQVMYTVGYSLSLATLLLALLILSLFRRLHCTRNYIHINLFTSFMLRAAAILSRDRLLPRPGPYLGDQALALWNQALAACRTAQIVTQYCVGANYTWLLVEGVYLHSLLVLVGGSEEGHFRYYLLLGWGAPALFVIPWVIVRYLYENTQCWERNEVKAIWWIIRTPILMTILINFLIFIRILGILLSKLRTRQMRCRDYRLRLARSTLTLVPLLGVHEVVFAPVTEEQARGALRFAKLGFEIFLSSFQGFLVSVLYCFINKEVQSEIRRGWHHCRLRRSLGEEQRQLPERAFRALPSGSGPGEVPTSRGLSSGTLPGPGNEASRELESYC

[3] = biological target: human GLP-1 receptor (human, UniProt P43220 24-463)

Binder | EC50, CreLuc assay, 0.5% hP [1] | EC50, CreLuc assay, 100% hP [1] | EC50, CreLuc assay, 0.5% hP [2] | EC50, CreLuc assay, 100% hP [2] | EC50, CreLuc assay, 0.5% hP [3] | EC50, CreLuc assay, 100% hP [3]
Y[Aib]EGTFTSDYSI[Aib]LEKQAQ[Aib]AFVQWLIKGGQRYYASLRHYYNWLTRQRY-NH2 (not fully specified (residue 28); also: TFA salt) [Compound 6] | 16.9 nM | 86.7 nM | 2.99 nM | 31.1 nM | 0.9 nM | 42.8 nM
YXEGTFTSDYSIXLEKQAQXAFVEWLIKGGPSSAVSLRHYYNWLTRQRY (Aib at 2, 13, 20; K28 side chain: C20DA-gGlu-gGlu-gGlu-gGlu-gGlu-gGlu-eLys; C-terminal NH2) [Compound 33] | 9.93 nM | 26.7 nM | 0.25 nM | 1.51 nM | 0.14 nM | 3.17 nM
YXEGTFTSDYSIXLEKQAQXAFVEWLIKGGPSSGQSXRHYYNWLTRQRY (Aib at 2, 13, 20, 37; K28 side chain: C20DA-gGlu-gGlu-gGlu-gGlu-gGlu-gGlu-eLys; C-terminal NH2) [Compound 44] | 9.35 nM | 24.5 nM | 0.05 nM | 1.14 nM | 0.07 nM | 2.12 nM
YXEGTFTSDYSIXLEKQAQXAFVEWLIKGGPSSGVSXRHYYNWLTRQRY (Aib at 2, 13, 20, 37; K28 side chain: C20DA-gGlu-gGlu-gGlu-gGlu-gGlu-gGlu-eLys; C-terminal NH2) [Compound 38] | 6.9 nM | 17.8 nM | 0.04 nM | 0.7 nM | 0.06 nM | 1.28 nM
YXEGTFTSDYSIXLEKQAQXAFVEWLIKGGPSSYVSLRHYYNWLTRQRY (Aib at 2, 13, 20; K28 side chain: C20DA-gGlu-gGlu-gGlu-gGlu-gGlu-gGlu-eLys; C-terminal NH2) [Compound 40] | 11.9 nM | 26.4 nM | 0.48 nM | 4.36 nM | 0.46 nM | 9.04 nM
YXEGTFTSDYSIXLEKQAQXAFVQWLIKGGPESGASLRHYYNWLTRQRY (Aib at 2, 13, 20; K28 side chain: C20DA-gGlu-gGlu-gGlu-gGlu-gGlu-gGlu-eLys; C-terminal NH2) [Compound 37] | 9.53 nM | 35.5 nM | 0.24 nM | 1.44 nM | 0.11 nM | 5.13 nM
YXEGTFTSDYSIXLEKEAQXKFVEWLIKGGPSSGASLRHYYNWLTRQRY (Aib at 2, 13, 20; K28 side chain: C20DA-gGlu-gGlu-gGlu-gGlu-gGlu-gGlu-eLys; C-terminal NH2) [Compound 46] | 10.2 nM | 36 nM | 0.2 nM | 1.21 nM | 0.21 nM | 5.94 nM
YXEGTFTSDYSIXLEKQAQXAFVEWLIKGGPSSGASLRHYYNWLTRQRY (Aib at 2, 13, 20; DLeu 37; DHis 39; DArg 46; DTyr 49; K28 side chain: C20DA-gGlu-gGlu-gGlu-gGlu-gGlu-gGlu-eLys; C-terminal NH2) [Compound 5] | > 99.9 nM | > 999 nM | 0.17 nM | 1.07 nM | 0.11 nM | 1.43 nM
YXEGTFTSDYSIXLEKQAQXAFVEWLIKGGPSEPQSIRHYYNWLTRQRY (Aib at 2, 13, 20; K28 side chain: C20DA-gGlu-gGlu-gGlu-gGlu-gGlu-gGlu-eLys; C-terminal NH2) [Compound 48] | 9.77 nM | 35.2 nM | 0.07 nM | 0.68 nM | 0.07 nM | 3.1 nM
YXEGTFTSDYSIXLEKQAQXEFVQWLIKGGPSSGASLRHYYNWLTRQRY (Aib at 2, 13, 20; K28 side chain: C20DA-gGlu-gGlu-gGlu-gGlu-gGlu-OEG-OEG; C-terminal NH2) [Compound 36] | 8.03 nM | 26.8 nM | 0.26 nM | 1.57 nM | 0.28 nM | 7.78 nM
YXEGTFTSDYSIXLEKQAQXAFVEWLIKGGPSSPQSLRHYYNWLTRQRY (Aib at 2, 13, 20; K28 side chain: C20DA-gGlu-gGlu-gGlu-gGlu-gGlu-gGlu-eLys; C-terminal NH2) [Compound 41] | 10.2 nM | 34.6 nM | 0.07 nM | 0.62 nM | 0.06 nM | 1.47 nM
Y[Aib]EGTFTSDYSI[Aib]LEEQAQ[Aib]AFVQWLIK([εLys-γGlu-γGlu-γGlu-γGlu-γGlu-C20 diacid])GGPSSGASLRHYYNWLTRQRY-NH2 (also: TFA salt) [Compound 34] | 14.6 nM | 66.7 nM | 0.13 nM | 1.61 nM | 0.09 nM | 1.39 nM

The remaining lines, values ahead:

EC50, CreLuc assay, 0.5% hP [1] | EC50, CreLuc assay, 100% hP [1] | EC50, CreLuc assay, 0.5% hP [2] | EC50, CreLuc assay, 100% hP [2] | EC50, CreLuc assay, 0.5% hP [3] | EC50, CreLuc assay, 100% hP [3] | Binder
17.2 nM | 46.5 nM | 0.14 nM | 1.15 nM | 0.11 nM | 1.6 nM | Y[Aib]EGTFTSDYSI[Aib]LEEQAQ[Aib]AFVQWLIK([εLys-AEEA-γGlu-γGlu-γGlu-γGlu-γGlu-C20 diacid])GGPSSGASLRHYYNWLTRQRY-NH2 (also: TFA salt) [Compound 45]
13.1 nM | 21.1 nM | 0.64 nM | 1.97 nM | 0.41 nM | 5.91 nM | Y[Aib]EGTFTSDYSI[Aib]LEKQAQ[Aib]EFVQWLIK([εLys-γGlu-γGlu-γGlu-γGlu-γGlu-γGlu-γGlu-C20 diacid])GGPSSGASLRHYYNWLTRQRY-NH2 (also: TFA salt) [Compound 43]
7.9 nM | 30.5 nM | 0.25 nM | 0.73 nM | 0.07 nM | 1.14 nM | YXEGTFTSDYSIXLEKQAQXAFVQWLIKGGPSSGVSLRHYYNWLTRQRY (Aib at 2, 13, 20; K28 side chain: C20DA-gGlu-gGlu-gGlu-gGlu-gGlu-gGlu-eLys; C-terminal NH2) [Compound 47]
26.9 nM | 61.5 nM | 0.06 nM | 0.4 nM | 0.09 nM | 0.82 nM | YXEGTFTSDYSIXLEKQAQXAFVEWLIKGGPSSGASXRHYYNWLTRQRY (Aib at 2, 13, 20, 37; NMeR 48; K28 side chain: C20DA-gGlu-gGlu-gGlu-gGlu-gGlu-gGlu-eLys; C-terminal NH2) [Compound 39]
8.82 nM | 19.1 nM | 0.15 nM | 1.34 nM | 0.36 nM | 7.15 nM | YXEGTFTSDYSIXLEKQAQXAFVEWLIKGGPSEYVSIRHYYNWLTRQRY (Aib at 2, 13, 20; K28 side chain: C20DA-gGlu-gGlu-gGlu-gGlu-gGlu-gGlu-eLys; C-terminal NH2) [Compound 42]
11.6 nM | 29.3 nM | 0.06 nM | 0.96 nM | 0.07 nM | 1.3 nM | YXEGTFTSDYSIXLEKQAQXAFVQWLIKGGPSSGESLRHYYNWLTRQRY (Aib at 2, 13, 20; K28 side chain: C20DA-gGlu-gGlu-gGlu-gGlu-gGlu-gGlu-eK; C-terminal NH2) [Compound 35]
